Measurements reported in patent US10494415B2, “Insulin-like growth factor 2 (IGF2) binding agents” (Cancer Research Technology Limited, priority 2015, dated 2019).

Molecular target: IGF2 (Homo sapiens, UniProt P01344)
Assay: SPR (Biacore T200) of recombinant IGF2R domain 11 mutants on immobilised biotinylated IGF2
Type: binding
Parameters: purchased GroPep
Excerpt: Surface plasmon resonance (SPR) binding analysis of recombinant M6P/IGF2R domain 11 mutants interaction with IGF2. Kon indicates association (on) rate; koff, dissociation (off) rate; RU, response units. Binding to IGF2 assessed with BIAcore T200 using purified biotinylated IGF2 and IGF1 on a streptavidin biosensor chip. Recombinant proteins were expressed either in E. coli and/or P. pastoris. All the mutants in the FG and CD loops are on the domain 11^AB5 background for the AB loop unless otherwise stated. All experiments were carried out at 25° C. in HBS-EP buffer (pH 7.4), were repeated 2-5 times on two independent BIAcore chips. nd=not determined. Data for KD expressed as mean of each experiment, and means of kon and koff are shown.
Measurements were carried out at 25° C. in HBS-EP buffer (pH 7.4) (nd=not determined, np=no protein). Data for KD expressed as mean of each experiment, and means of kon and koff are shown.
Measurements were carried out at 25° C. in MES-EP buffer, 20 mM MES pH 6.5, 150 mM NaCl, 3 mM EDTA, and 0.005% (v/v) surfactant P20). Data for KD expressed as mean of each experiment, and means of kon and koff are shown.
Final kinetic analysis of mutants by SPR was conducted using a Biacore T200 biosensor at 25° C. in either HBS-EP (10 mM HEPES pH 7.4, 150 mM NaCl, 3 mM EDTA, and 0.005% (v/v) surfactant P20) or MES-EP (20 mM MES pH 6.5, 150 mM NaCl, 3 mM EDTA, and 0.005% (v/v) surfactant P20) at a flow-rate of 40 μL min^−1. […] For the analysis of the Fc-domain 11^AB5 interaction, approximately 50 RU of a biotinylated IGF2:biotinylated ubiquitin mixture (1:8 proportion) was immobilized on the CM5-streptavidin chip. This interaction was also analysed by immobilizing the Fc-domain 11^AB5 and Fc-domain 11^AB5-RHH (or Fc-domain 11^I1572A as control) by Human Antibody Capture (monoclonal mouse anti-human IgG antibody immobilised on a CM5 chip by amine coupling, GE Healthcare) with and without human IgG1 Fc fragment (Bethyl Laboratories, UK) in the control flow cell. Increasing concentrations of IGF2^1-67, proIGF2^1-104, proIGF2^1-156 and IGF1 ranging from 0.125 to 32 nM were injected. T200 BiaEvaluation software (GE Healthcare) was used to fit the resulting curves according to a 1:1 binding model. Steady state affinities were determined using the kinetic data, taking the response average at 5 seconds before injection end and for 5 seconds average. Thermodynamic data was performed across the temperature range of 10° C. to 30° C., van't Hoff and Erying plots generated and ΔH, −TΔS and ΔG values determined as previously described.

Sequence of IGF2 (P01344 25-91): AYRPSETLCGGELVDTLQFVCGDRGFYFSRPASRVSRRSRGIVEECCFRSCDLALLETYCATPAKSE

Row | Molecule | Kinetics koff (Table 3, 25° C., HBS-EP pH 7.4) | Kinetics kon (Table 3, 25° C., HBS-EP pH 7.4) | Kinetics koff (Table 4, MES-EP pH 6.5) | Kinetics kon (Table 4, MES-EP pH 6.5)
1 | AB3 Q1569R P1597H S1602H: domain 11 AB3 + Q1569R, P1597H, S1602H (protein) MKSNEHDDCQVTNPSTGHLFDLSSLSGRAGFTAAYSKSGVVYMSICGENENCPPGVGACFGRTRISVGKANKRLRYVDQVLQLVYKDGSHCPSKHGLSYKSVISFVCRPEAGPTNRPMLISLDKQTCTLFFSWHTPLACEQATECSV | 0.010 s⁻¹ | 1.41e+07 M⁻¹ s⁻¹ | 0.0064 s⁻¹ | 1.61e+07 M⁻¹ s⁻¹
2 | AB3 Q1569R P1597K S1602H G1603K: domain 11 AB3 + Q1569R, P1597K, S1602H, G1603K (protein) MKSNEHDDCQVTNPSTGHLFDLSSLSGRAGFTAAYSKSGVVYMSICGENENCPPGVGACFGRTRISVGKANKRLRYVDQVLQLVYKDGSKCPSKHKLSYKSVISFVCRPEAGPTNRPMLISLDKQTCTLFFSWHTPLACEQATECSV | 0.0171 s⁻¹ | 2.08e+07 M⁻¹ s⁻¹ |  | 
3 | AB5 P1597H: domain 11 AB5 + P1597H (protein) MKSNEHDDCQVTNPSTGHLFDLSSLSGRAGFTAAYAKGWGVYMSICGENENCPPGVGACFGQTRISVGKANKRLRYVDQVLQLVYKDGSHCPSKSGLSYKSVISFVCRPEAGPTNRPMLISLDKQTCTLFFSWHTPLACEQATECSV | 0.0070 s⁻¹ | 3.68e+06 M⁻¹ s⁻¹ |  | 
4 | AB5 P1597H S1602H: domain 11 AB5 + P1597H, S1602H (protein) MKSNEHDDCQVTNPSTGHLFDLSSLSGRAGFTAAYAKGWGVYMSICGENENCPPGVGACFGQTRISVGKANKRLRYVDQVLQLVYKDGSHCPSKHGLSYKSVISFVCRPEAGPTNRPMLISLDKQTCTLFFSWHTPLACEQATECSV | 0.0046 s⁻¹ | 3.5e+06 M⁻¹ s⁻¹ | 0.0029 s⁻¹ | 5.32e+06 M⁻¹ s⁻¹
5 | AB3 Q1569R P1597K S1602H: domain 11 AB3 + Q1569R, P1597K, S1602H (protein) MKSNEHDDCQVTNPSTGHLFDLSSLSGRAGFTAAYSKSGVVYMSICGENENCPPGVGACFGRTRISVGKANKRLRYVDQVLQLVYKDGSKCPSKHGLSYKSVISFVCRPEAGPTNRPMLISLDKQTCTLFFSWHTPLACEQATECSV | 0.016 s⁻¹ | 2.01e+07 M⁻¹ s⁻¹ |  | 
6 | AB5 P1597A: domain 11 AB5 + P1597A (protein) MKSNEHDDCQVTNPSTGHLFDLSSLSGRAGFTAAYAKGWGVYMSICGENENCPPGVGACFGQTRISVGKANKRLRYVDQVLQLVYKDGSACPSKSGLSYKSVISFVCRPEAGPTNRPMLISLDKQTCTLFFSWHTPLACEQATECSV | 0.0174 s⁻¹ | 1.9e+06 M⁻¹ s⁻¹ |  | 
7 | AB5 HI^23D: domain 11 AB5 + HI loop of clone 23D (HFQS) (protein) MKSNEHDDCQVTNPSTGHLFDLSSLSGRAGFTAAYAKGWGVYMSICGENENCPPGVGACFGQTRISVGKANKRLRYVDQVLQLVYKDGSPCPSKSGLSYKSVISFVCRPEAGPTNRPMLISLHFQSCTLFFSWHTPLACEQATECSV | 0.012 s⁻¹ |  |  | 

Next, values leading:

Row | Kinetics koff (Table 3, 25° C., HBS-EP pH 7.4) | Kinetics kon (Table 3, 25° C., HBS-EP pH 7.4) | Kinetics koff (Table 4, MES-EP pH 6.5) | Kinetics kon (Table 4, MES-EP pH 6.5) | Molecule
8 | 0.0073 s⁻¹ | 7.87e+06 M⁻¹ s⁻¹ |  |  | AB5 Q1569R P1597K S1602H: domain 11 AB5 + Q1569R, P1597K, S1602H (protein) MKSNEHDDCQVTNPSTGHLFDLSSLSGRAGFTAAYAKGWGVYMSICGENENCPPGVGACFGRTRISVGKANKRLRYVDQVLQLVYKDGSKCPSKHGLSYKSVISFVCRPEAGPTNRPMLISLDKQTCTLFFSWHTPLACEQATECSV
9 | 0.0058 s⁻¹ | 3.2e+06 M⁻¹ s⁻¹ | 0.0034 s⁻¹ | 2.37e+06 M⁻¹ s⁻¹ | AB5 Q1569R P1597H: domain 11 AB5 + Q1569R, P1597H (protein) MKSNEHDDCQVTNPSTGHLFDLSSLSGRAGFTAAYAKGWGVYMSICGENENCPPGVGACFGRTRISVGKANKRLRYVDQVLQLVYKDGSHCPSKSGLSYKSVISFVCRPEAGPTNRPMLISLDKQTCTLFFSWHTPLACEQATECSV
10 | 0.0193 s⁻¹ | 5e+06 M⁻¹ s⁻¹ |  |  | AB5 P1597S: domain 11 AB5 + P1597S (protein) MKSNEHDDCQVTNPSTGHLFDLSSLSGRAGFTAAYAKGWGVYMSICGENENCPPGVGACFGQTRISVGKANKRLRYVDQVLQLVYKDGSSCPSKSGLSYKSVISFVCRPEAGPTNRPMLISLDKQTCTLFFSWHTPLACEQATECSV
11 | 0.0091 s⁻¹ | 9.59e+06 M⁻¹ s⁻¹ |  |  | AB5 Q1569R P1597K: domain 11 AB5 + Q1569R, P1597K (protein) MKSNEHDDCQVTNPSTGHLFDLSSLSGRAGFTAAYAKGWGVYMSICGENENCPPGVGACFGRTRISVGKANKRLRYVDQVLQLVYKDGSKCPSKSGLSYKSVISFVCRPEAGPTNRPMLISLDKQTCTLFFSWHTPLACEQATECSV
12 | 0.0150 s⁻¹ | 4.18e+06 M⁻¹ s⁻¹ |  |  | AB5 P1597L: domain 11 AB5 + P1597L (protein) MKSNEHDDCQVTNPSTGHLFDLSSLSGRAGFTAAYAKGWGVYMSICGENENCPPGVGACFGQTRISVGKANKRLRYVDQVLQLVYKDGSLCPSKSGLSYKSVISFVCRPEAGPTNRPMLISLDKQTCTLFFSWHTPLACEQATECSV
13 | 0.0203 s⁻¹ | 6.53e+06 M⁻¹ s⁻¹ |  |  | AB5 P1597Q: domain 11 AB5 + P1597Q (protein) MKSNEHDDCQVTNPSTGHLFDLSSLSGRAGFTAAYAKGWGVYMSICGENENCPPGVGACFGQTRISVGKANKRLRYVDQVLQLVYKDGSQCPSKSGLSYKSVISFVCRPEAGPTNRPMLISLDKQTCTLFFSWHTPLACEQATECSV
14 | 0.0175 s⁻¹ | 8.04e+06 M⁻¹ s⁻¹ |  |  | AB5 Q1569R: domain 11 AB5 + CD loop Q1569R (protein) MKSNEHDDCQVTNPSTGHLFDLSSLSGRAGFTAAYAKGWGVYMSICGENENCPPGVGACFGRTRISVGKANKRLRYVDQVLQLVYKDGSPCPSKSGLSYKSVISFVCRPEAGPTNRPMLISLDKQTCTLFFSWHTPLACEQATECSV
15 | 0.0096 s⁻¹ | 2.09e+06 M⁻¹ s⁻¹ |  |  | AB5 P1597K S1602H: domain 11 AB5 + P1597K, S1602H (protein) MKSNEHDDCQVTNPSTGHLFDLSSLSGRAGFTAAYAKGWGVYMSICGENENCPPGVGACFGQTRISVGKANKRLRYVDQVLQLVYKDGSKCPSKHGLSYKSVISFVCRPEAGPTNRPMLISLDKQTCTLFFSWHTPLACEQATECSV
16 | 0.0180 s⁻¹ | 4.72e+06 M⁻¹ s⁻¹ |  |  | AB5 P1597N: domain 11 AB5 + P1597N (protein) MKSNEHDDCQVTNPSTGHLFDLSSLSGRAGFTAAYAKGWGVYMSICGENENCPPGVGACFGQTRISVGKANKRLRYVDQVLQLVYKDGSNCPSKSGLSYKSVISFVCRPEAGPTNRPMLISLDKQTCTLFFSWHTPLACEQATECSV
17 | 0.0120 s⁻¹ | 9.54e+06 M⁻¹ s⁻¹ |  |  | AB5 P1597K: domain 11 AB5 + P1597K (protein) MKSNEHDDCQVTNPSTGHLFDLSSLSGRAGFTAAYAKGWGVYMSICGENENCPPGVGACFGQTRISVGKANKRLRYVDQVLQLVYKDGSKCPSKSGLSYKSVISFVCRPEAGPTNRPMLISLDKQTCTLFFSWHTPLACEQATECSV
